B4: ICOS-L, human, expressed on HEK 293 cells (ligand, UniProt O75144 19-302, looked up)
chain: DTQEKEVRAMVGSDVELSCACPEGSRFDLNDVYVYWQTSESKTVVTYHIPQNSSLENVDSRYRNRALMSPAGMLRGDFSLRLFNVTPQDEQKFHCLVLSQSLGFQEVLSVEVTLHVAANFSVPVVSAPHSPSQDELTFTCTSINGYPRPNVYWINKTDNSLLDQALQNDTVFLNMRGLYDVVSVLRIARTPSVNIGCCIENVLLQQNLTVGSQTGNDIGERDKITENPVSTGEKNAATWSILAVLCLLVVVAVAIGWVCRDRCLQHSYAGAWAVSPETELTGHV
notes: whole, on cells; Expressed as GFP or mCherry fusion; Library form: ectodomain on the mouse PD-L1 transmembrane segment with GFP; also called Human ICOS-L

Experiments:
[1] = molecular target: T1, NGFR, human, expressed on cells (human, UniProt P08138 29-427); assay: cell-cell FACS screen, NGFR query cells vs GFP library cells
T1 construct: whole, on cells
T1 sequence (looked up): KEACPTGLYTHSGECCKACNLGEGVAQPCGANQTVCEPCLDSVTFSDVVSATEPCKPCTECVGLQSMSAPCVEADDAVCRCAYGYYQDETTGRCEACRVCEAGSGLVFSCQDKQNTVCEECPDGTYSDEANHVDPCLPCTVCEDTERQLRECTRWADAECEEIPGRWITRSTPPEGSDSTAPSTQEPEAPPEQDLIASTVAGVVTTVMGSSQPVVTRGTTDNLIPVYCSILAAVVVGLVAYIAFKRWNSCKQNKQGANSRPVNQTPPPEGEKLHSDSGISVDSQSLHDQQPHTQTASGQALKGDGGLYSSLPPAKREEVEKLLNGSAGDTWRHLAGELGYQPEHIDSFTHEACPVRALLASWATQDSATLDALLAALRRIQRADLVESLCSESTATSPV

[2] = molecular target: T2, tumor necrosis factor receptor 1B (TNFR-1B), human, expressed on HEK 293 cells (human, UniProt P20333 23-461); assay: soluble ICOS-L Fc on transfected cells, flow cytometry
T2 construct: also called TNFR-1B-mCHERRY; Human TNFR-1B; not shown: C-terminal fluorescent protein (mCherry as query, GFP as library or panel member)
T2 sequence: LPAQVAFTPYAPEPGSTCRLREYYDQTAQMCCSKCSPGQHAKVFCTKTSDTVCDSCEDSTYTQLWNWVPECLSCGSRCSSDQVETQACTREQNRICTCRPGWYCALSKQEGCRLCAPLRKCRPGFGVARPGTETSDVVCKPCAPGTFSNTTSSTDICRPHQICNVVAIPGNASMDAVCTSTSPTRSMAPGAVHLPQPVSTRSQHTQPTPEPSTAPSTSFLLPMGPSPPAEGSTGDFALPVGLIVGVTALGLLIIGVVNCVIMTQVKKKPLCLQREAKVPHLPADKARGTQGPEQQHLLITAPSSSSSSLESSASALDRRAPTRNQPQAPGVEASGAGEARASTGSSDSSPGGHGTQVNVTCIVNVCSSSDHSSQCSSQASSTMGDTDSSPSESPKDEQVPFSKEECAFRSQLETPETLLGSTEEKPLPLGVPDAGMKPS

[3] = molecular target: B4; assay: cell-cell FACS, mutant-mCherry cells vs ligand-GFP cells
[4] = molecular target: T3, TNFα, cell-surface displayed on HEK 293 cells (Homo sapiens (Human), UniProt P01375 1-233, Expressed as a GFP fusion on HEK 293 cells. GFP is left out of the chain. The native protein is a homotrimer.); assay: as above
T3 construct: also called TNF-alpha; cell surface expressed TNFα

TNFR-1B mutant D58A = molecular target: T4, TNFR-1B mutant D58A (human, UniProt P20333 23-461); assay: as above
T4 construct: Point mutant expressed as mCherry fusion in HEK 293 cells; not shown: C-terminal mCherry fusion
T4 sequence: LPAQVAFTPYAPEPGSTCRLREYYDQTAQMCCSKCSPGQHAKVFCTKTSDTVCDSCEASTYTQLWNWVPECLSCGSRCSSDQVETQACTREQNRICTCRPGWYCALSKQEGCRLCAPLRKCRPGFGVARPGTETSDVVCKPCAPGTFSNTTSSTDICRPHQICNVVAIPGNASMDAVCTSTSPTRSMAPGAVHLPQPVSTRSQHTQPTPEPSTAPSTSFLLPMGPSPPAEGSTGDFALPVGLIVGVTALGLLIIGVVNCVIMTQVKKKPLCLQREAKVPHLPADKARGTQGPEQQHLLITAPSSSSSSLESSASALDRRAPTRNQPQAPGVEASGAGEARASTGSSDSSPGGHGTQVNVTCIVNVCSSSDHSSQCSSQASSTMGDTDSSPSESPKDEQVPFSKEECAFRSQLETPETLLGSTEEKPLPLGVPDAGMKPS

[5] = molecular target: T2, tumor necrosis factor receptor 1B …; assay: listed as newly discovered in this disclosure (cell-cell FACS screens)
mouse TNFR-1B = molecular target: T5, mouse TNFR-1B (mouse, UniProt P25119 23-258); assay: mouse constructs tested; assay not described (data not shown)
T5 construct: also called mouse ortholog of TNFR-1B
T5 sequence (looked up): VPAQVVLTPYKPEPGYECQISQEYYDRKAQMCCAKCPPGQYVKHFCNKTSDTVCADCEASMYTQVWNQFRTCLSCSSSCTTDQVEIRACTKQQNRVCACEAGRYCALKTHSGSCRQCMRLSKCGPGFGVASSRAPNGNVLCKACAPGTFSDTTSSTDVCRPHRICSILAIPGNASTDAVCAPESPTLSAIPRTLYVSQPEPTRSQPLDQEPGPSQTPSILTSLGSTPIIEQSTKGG

T3 sequence (P01375 whole entry, form in doubt, the tested form may be a part): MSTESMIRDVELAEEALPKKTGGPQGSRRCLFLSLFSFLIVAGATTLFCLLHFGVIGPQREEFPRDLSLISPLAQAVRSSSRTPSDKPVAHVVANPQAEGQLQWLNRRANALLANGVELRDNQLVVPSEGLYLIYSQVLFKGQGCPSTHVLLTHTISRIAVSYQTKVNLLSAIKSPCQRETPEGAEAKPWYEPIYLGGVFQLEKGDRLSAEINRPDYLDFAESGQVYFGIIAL

B1: B7-1, human, expressed on cells (ligand, UniProt P33681 35-288, looked up)
chain: VIHVTKEVKEVATLSCGHNVSVEELAQTRIYWQKEKKMVLTMMSGDMNIWPEYKNRTIFDITNNLSIVILALRPSDEGTYECVVLKYEKDAFKREHLAEVTLSVKADFPTPSISDFEIPTSNIRRIICSTSGGFPEPHLSWLENGEELNAINTTVSQDPETELYAVSSKLDFNMTTNHSFMCLIKYGHLRVNQTFNWNTTKQEHFPDNLLPSWAITLISVNGIFVICCLTYCFAPRCRERRRNERLRRESVRPV
notes: whole, on cells
[1]
  binding result: binds

B2: ICOS-L Fc-fusion protein (soluble, purified) (Fc fusion, human, UniProt O75144 19-256, looked up, not shown: a dimerising Fc or GST)
chain: DTQEKEVRAMVGSDVELSCACPEGSRFDLNDVYVYWQTSESKTVVTYHIPQNSSLENVDSRYRNRALMSPAGMLRGDFSLRLFNVTPQDEQKFHCLVLSQSLGFQEVLSVEVTLHVAANFSVPVVSAPHSPSQDELTFTCTSINGYPRPNVYWINKTDNSLLDQALQNDTVFLNMRGLYDVVSVLRIARTPSVNIGCCIENVLLQQNLTVGSQTGNDIGERDKITENPVSTGEKNAAT
notes: Expressed in HEK 293 cells, purified by Ni2+-NTA and gel filtration; Used soluble or on protein A microbeads; also called ICOS-L Fc (IgG2a); ICOS-L mIgG2a
[2]
  binding result: binds

B3: TNFR-1B mutant K42D (receptor)
chain: LPAQVAFTPYAPEPGSTCRLREYYDQTAQMCCSKCSPGQHADVFCTKTSDTVCDSCEDSTYTQLWNWVPECLSCGSRCSSDQVETQACTREQNRICTCRPGWYCALSKQEGCRLCAPLRKCRPGFGVARPGTETSDVVCKPCAPGTFSNTTSSTDICRPHQICNVVAIPGNASMDAVCTSTSPTRSMAPGAVHLPQPVSTRSQHTQPTPEPSTAPSTSFLLPMGPSPPAEGSTGDFALPVGLIVGVTALGLLIIGVVNCVIMTQVKKKPLCLQREAKVPHLPADKARGTQGPEQQHLLITAPSSSSSSLESSASALDRRAPTRNQPQAPGVEASGAGEARASTGSSDSSPGGHGTQVNVTCIVNVCSSSDHSSQCSSQASSTMGDTDSSPSESPKDEQVPFSKEECAFRSQLETPETLLGSTEEKPLPLGVPDAGMKPS
notes: Point mutant expressed as mCherry fusion in HEK 293 cells; not shown: C-terminal mCherry fusion
[3]
  binding as percent of wild-type: ~50 % of wild-type
[4]
  binding as percent of wild-type: ~50 % of wild-type

## B4
TNFR-1B mutant D58A
  binding result: binds
[5]
  binding result: binds

B5: MadCAM-1, human, expressed on HEK 293 cells (ligand, UniProt Q13477 19-382, looked up)
chain: QSLQVKPLQVEPPEPVVAVALGASRQLTCRLACADRGASVQWRGLDTSLGAVQSDTGRSVLTVRNASLSAAGTRVCVGSCGGRTFQHTVQLLVYAFPDQLTVSPAALVPGDPEVACTAHKVTPVDPNALSFSLLVGGQELEGAQALGPEVQEEEEEPQGDEDVLFRVTERWRLPPLGTPVPPALYCQATMRLPGLELSHRQAIPVLHSPTSPEPPDTTSPESPDTTSPESPDTTSQEPPDTTSPEPPDKTSPEPAPQQGSTHTPRSPGSTRTRRPEISQAGPTQGEVIPTGSSKPAGDQLPAALWTSSAVLGLLLLALPTYHLWKRCRHLAEDDTHPPASLRLLPQVSAWAGLRGTGQVGISPS
notes: whole, on cells; GFP or mCherry fusion; library form has the ectodomain on the mouse PD-L1 transmembrane segment
TNFR-1B mutant D58A
  binding result: binds
[5]
  binding result: binds

B6: TNFR-1B mutant N171D (receptor)
chain: LPAQVAFTPYAPEPGSTCRLREYYDQTAQMCCSKCSPGQHAKVFCTKTSDTVCDSCEDSTYTQLWNWVPECLSCGSRCSSDQVETQACTREQNRICTCRPGWYCALSKQEGCRLCAPLRKCRPGFGVARPGTETSDVVCKPCAPGTFSNTTSSTDICRPHQICNVVAIPGDASMDAVCTSTSPTRSMAPGAVHLPQPVSTRSQHTQPTPEPSTAPSTSFLLPMGPSPPAEGSTGDFALPVGLIVGVTALGLLIIGVVNCVIMTQVKKKPLCLQREAKVPHLPADKARGTQGPEQQHLLITAPSSSSSSLESSASALDRRAPTRNQPQAPGVEASGAGEARASTGSSDSSPGGHGTQVNVTCIVNVCSSSDHSSQCSSQASSTMGDTDSSPSESPKDEQVPFSKEECAFRSQLETPETLLGSTEEKPLPLGVPDAGMKPS
notes: as for B3
[3]
  binding as percent of wild-type: ~50 % of wild-type
[4]
  binding as percent of wild-type: ~50 % of wild-type

B7: TNFR-1B mutant T48A (receptor)
chain: LPAQVAFTPYAPEPGSTCRLREYYDQTAQMCCSKCSPGQHAKVFCTKASDTVCDSCEDSTYTQLWNWVPECLSCGSRCSSDQVETQACTREQNRICTCRPGWYCALSKQEGCRLCAPLRKCRPGFGVARPGTETSDVVCKPCAPGTFSNTTSSTDICRPHQICNVVAIPGNASMDAVCTSTSPTRSMAPGAVHLPQPVSTRSQHTQPTPEPSTAPSTSFLLPMGPSPPAEGSTGDFALPVGLIVGVTALGLLIIGVVNCVIMTQVKKKPLCLQREAKVPHLPADKARGTQGPEQQHLLITAPSSSSSSLESSASALDRRAPTRNQPQAPGVEASGAGEARASTGSSDSSPGGHGTQVNVTCIVNVCSSSDHSSQCSSQASSTMGDTDSSPSESPKDEQVPFSKEECAFRSQLETPETLLGSTEEKPLPLGVPDAGMKPS
notes: as for B3
[3]
  binding as percent of wild-type: ~50 % of wild-type
[4]
  binding as percent of wild-type: ~50 % of wild-type

B8: mouse ICOS-L (ligand, UniProt Q9JHJ8 47-277, looked up)
chain: ETEVGAMVGSNVVLSCIDPHRRHFNLSGLYVYWQIENPEVSVTYYLPYKSPGINVDSSYKNRGHLSLDSMKQGNFSLYLKNVTPQDTQEFTCRVFMNTATELVKILEEVVRLRVAANFSTPVISTSDSSNPGQERTYTCMSKNGYPEPNLYWINTTDNSLIDTALQNNTVYLNKLGLYDVISTLRLPWTSRGDVLCCVENVALHQNITSISQAESFTGNNTKNPQETHNNE
notes: also called mouse ortholog of ICOS-L
Mouse TNFR-1B
  binding result: no binding

Reference: patent US20180273604A1 (ALBERT EINSTEIN COLLEGE OF MEDICINE, published 2018)
